Data from the supplement of paper PMC5998384.

How the values were obtained:
HeLa Kyoto [1] = experiment: thermal stability score vs G1/S (z-score of summed log2 fold changes over temperatures); higher = more thermally stable than in G1/S
HeLa Kyoto [2] = experiment: melting temperature (median over replicates), in situ; higher = more thermally stable
HeLa Kyoto [3] = experiment: solubility change mitosis vs G1/S (difference of NP-40 vs SDS log2 ratios) (log2 ratio difference); higher = more soluble in mitosis
HeLa Kyoto [4] = experiment: solubility in G1/S (NP-40 vs SDS abundance) (log2 ratio); higher = more soluble; details: cell cycle stage: G1/S
[5] = cell cycle stage: early G1 (4.5 h after nocodazole release)
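For melting temperature (median over replicates), in situ in this document: HeLa Kyoto cells synchronized by double thymidine or nocodazole block, proteins quantified by TMT10plex mass spectrometry, three independent biological replicates.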
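For solubility change mitosis vs G1/S (difference of NP-40 vs SDS log2 ratios) in this document: synchronized HeLa Kyoto cells (double thymidine block for G1/S, nocodazole release for mitosis), protein amounts in NP-40 versus SDS lysates quantified by mass spectrometry, three biological replicates.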
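For solubility in G1/S (NP-40 vs SDS abundance) in this document: HeLa Kyoto cells arrested at G1/S by double thymidine block, proteins quantified by TMT10plex mass spectrometry in mild NP-40 versus SDS extracts, three biological replicates.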
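For thermal stability score vs G1/S (z-score of summed log2 fold changes over temperatures) in this document: synchronized HeLa Kyoto cells, proteins quantified by TMT10plex mass spectrometry, three biological replicates, mitosis taken 0.5 h after nocodazole release, G1/S directly after double thymidine block.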

Substance | thermal stability score (HeLa Kyoto [1]; [5]) | thermal stability score (HeLa Kyoto [1]; cell cycle stage: mitosis) | melting temperature (HeLa Kyoto [2]; cell cycle stage: G1/S) [°C] | melting temperature (HeLa Kyoto [2]; cell cycle stage: mitosis) [°C] | solubility change mitosis (log2) (HeLa Kyoto [3]) | solubility in G1/S (log2) (HeLa Kyoto [4])
MGSGPIDPKELLKGLDSFLNRDGEVKSVDGISKIFSLMKEARKMVSRCTYLNILLQTRSPEILVKFIDVGGYKLLNNWLTYSKTTNNIPLLQQILLTLQHLPLTVDHLKQNNTAKLVKQLSKSSEDEELRKLASVLVSDWMAVIRSQSSTQPAEKDKKKRKDEGKSRTTLPERPLTEVKAETRAEEAPEKKREKPKSLRTTAPSHAKFRSTGLELETPSLVPVKKNASTVVVSDKYNLKPIPLKRQSNVAAPGDATPPAEKKYKPLNTTPNATKEIKVKIIPPQPMEGLGFLDALNSAPVPGIKIKKKKKVLSPTAAKPSPFEGKTSTEPSTAKPSSPEPAPPSEAMDADRPGTPVPPVEVPELMDTASLEPGALDAKPVESPGDPNQLTRKGRKRKSVTWPEEGKLREYFYFELDETERVNVNKIKDFGEAAKREILSDRHAFETARRLSHDNMEEKVPWVCPRPLVLPSPLVTPGSNSQERYIQAEREKGILQELFLNKESPHEPDPEPYEPIPPKLIPLDEECSMDETPYVETLEPGGSGGSPDGAGGSKLPPVLANLMGSMGAGKGPQGPGGGGINVQEILTSIMGSPNSHPSEELLKQPDYSDKIKQMLVPHGLLGPGPIANGFPPGGPGGPKGMQHFPPGPGGPMPGPHGGPGGPVGPRLLGPPPPPRGGDPFWDGPGDPMRGGPMRGGPGPGPGPYHRGRGGRGGNEPPPPPPPFRGARGGRSGGGPPNGRGGPGGGMVGGGGHRPHEGPGGGMGNSSGHRPHEGPGGGMGSGHRPHEGPGGSMGGGGGHRPHEGPGGGISGGSGHRPHEGPGGGMGAGGGHRPHEGPGGSMGGSGGHRPHEGPGHGGPHGHRPHDVPGHRGHDHRGPPPHEHRGHDGPGHGGGGHRGHDGGHSHGGDMSNRPVCRHFMMKGNCRYENNCAFYHPGVNGPPLP [PPP1R10] | 4.23 | 3.65 | 51 | 50.8 | 0.274 | 0.0711
MGSMFRSEEVALVQLFLPTAAAYTCVSRLGELGLVEFRDLNASVSAFQRRFVVDVRRCEELEKTFTFLQEEVRRAGLVLPPPKGRLPAPPPRDLLRIQEETERLAQELRDVRGNQQALRAQLHQLQLHAAVLRQGHEPQLAAAHTDGASERTPLLQAPGGPHQDLRVNFVAGAVEPHKAPALERLLWRACRGFLIASFRELEQPLEHPVTGEPATWMTFLISYWGEQIGQKIRKITDCFHCHVFPFLQQEEARLGALQQLQQQSQELQEVLGETERFLSQVLGRVLQLLPPGQVQVHKMKAVYLALNQCSVSTTHKCLIAEAWCSVRDLPALQEALRDSSMEEGVSAVAHRIPCRDMPPTLIRTNRFTASFQGIVDAYGVGRYQEVNPAPYTIITFPFLFAVMFGDVGHGLLMFLFALAMVLAENRPAVKAAQNEIWQTFFRGRYLLLLMGLFSIYTGFIYNECFSRATSIFPSGWSVAAMANQSGWSDAFLAQHTMLTLDPNVTGVFLGPYPFGIDPIWSLAANHLSFLNSFKMKMSVILGVVHMAFGVVLGVFNHVHFGQRHRLLLETLPELTFLLGLFGYLVFLVIYKWLCVWAARAASAPSILIHFINMFLFSHSPSNRLLYPRQEVVQATLVVLALAMVPILLLGTPLHLLHRHRRRLRRRPADRQEENKAGLLDLPDASVNGWSSDEEKAGGLDDEEEAELVPSEVLMHQAIHTIEFCLGCVSNTASYLRLWALSLAHAQLSEVLWAMVMRIGLGLGREVGVAAVVLVPIFAAFAVMTVAILLVMEGLSAFLHALRLHWVEFQNKFYSGTGYKLSPFTFAATDD [TCIRG1] | -2.43 | -1.47 | 53 | 54.1 | 0.0336 | -0.278
MGSPEGRFHFAIDRGGTFTDVFAQCPGGHVRVLKLLSEDPANYADAPTEGIRRILEQEAGMLLPRDQPLDSSHIASIRMGTTVATNALLERKGERVALLVTRGFRDLLHIGTQARGDLFDLAVPMPEVLYEEVLEVDERVVLHRGEAGTGTPVKGRTGDLLEVQQPVDLGALRGKLEGLLSRGIRSLAVVLMHSYTWAQHEQQVGVLARELGFTHVSLSSEAMPMVRIVPRGHTACADAYLTPAIQRYVQGFCRGFQGQLKDVQVLFMRSDGGLAPMDTFSGSSAVLSGPAGGVVGYSATTYQQEGGQPVIGFDMGGTSTDVSRYAGEFEHVFEASTAGVTLQAPQLDINTVAAGGGSRLFFRSGLFVVGPESAGAHPGPACYRKGGPVTVTDANLVLGRLLPASFPCIFGPGENQPLSPEASRKALEAVATEVNSFLTNGPCPASPLSLEEVAMGFVRVANEAMCRPIRALTQARGHDPSAHVLACFGGAGGQHACAIARALGMDTVHIHRHSGLLSALGLALADVVHEAQEPCSLLYAPETFVQLDQRLSRLEEQCVDALQAQGFPRSQISTESFLHLRYQGTDCALMVSAHQHPATARSPRAGDFGAAFVERYMREFGFVIPERPVVVDDVRVRGTGRSGLRLEDAPKAQTGPPRVDKMTQCYFEGGYQETPVYLLAELGYGHKLHGPCLIIDSNSTILVEPGCQAEVTKTGDICISVGAEVPGTVGPQLDPIQLSIFSHRFMSIAEQMGRILQRTAISTNIKERLDFSCALFGPDGGLVSNAPHIPVHLGAMQETVQFQIQHLGADLHPGDVLLSNHPSAGGSHLPDLTVITPVFWPGQTRPVFYVASRGHHADIGGITPGSMPPHSTMLQQEGAVFLSFKLVQGGVFQEEAVTEALRAPGKVPNCSGTRNLHDNLSDLRAQVAANQKGIQLVGELIGQYGLDVVQAYMGHIQANAELAVRDMLRAFGTSRQARGLPLEVSSEDHMDDGSPIRLRVQISLSQGSAVFDFSGTGPEVFGNLNAPRAVTLSALIYCLRCLVGRDIPLNQGCLAPVRVVIPRGSILDPSPEAAVVGGNVLTSQRVVDVILGAFGACAASQGCMNNVTLGNAHMGYYETVAGGAGAGPSWHGRSGVHSHMTNTRITDPEILESRYPVILRRFELRRGSGGRGRFRGGDGVTRELLFREEALLSVLTERRAFRPYGLHGGEPGARGLNLLIRKNGRTVNLGGKTSVTVYPGDVFCLHTPGGGGYGDPEDPAPPPGSPPQALAFPEHGSVYEYRRAQEAV [OPLAH] | -0.162 | -0.669 | 51.1 | 51.3 | -0.171 | 0.0511
MGSQVSVESGALHVVIVGGGFGGIAAASQLQALNVPFMLVDMKDSFHHNVAALRASVETGFAKKTFISYSVTFKDNFRQGLVVGIDLKNQMVLLQGGEALPFSHLILATGSTGPFPGKFNEVSSQQAAIQAYEDMVRQVQRSRFIVVVGGGSAGVEMAAEIKTEYPEKEVTLIHSQVALADKELLPSVRQEVKEILLRKGVQLLLSERVSNLEELPLNEYREYIKVQTDKGTEVATNLVILCTGIKINSSAYRKAFESRLASSGALRVNEHLQVEGHSNVYAIGDCADVRTPKMAYLAGLHANIAVANIVNSVKQRPLQAYKPGALTFLLSMGRNDGVGQISGFYVGRLMVRLTKSRDLFVSTSWKTMRQSPP [AIFM2] | -1.05 | -2.26 | 55.3 | 53.7 | -0.209 | 0.112
MGSRIKQNPETTFEVYVEVAYPRTGGTLSDPEVQRQFPEDYSDQEVLQTLTKFCFPFYVDSLTVSQVGQNFTFVLTDIDSKQRFGFCRLSSGAKSCFCILSYLPWFEVFYKLLNILADYTTKRQENQWNELLETLHKLPIPDPGVSVHLSVHSYFTVPDTRELPSIPENRNLTEYFVAVDVNNMLHLYASMLYERRILIICSKLSTLTACIHGSAAMLYPMYWQHVYIPVLPPHLLDYCCAPMPYLIGIHLSLMEKVRNMALDDVVILNVDTNTLETPFDDLQSLPNDVISSLKNRLKKVSTTTGDGVARAFLKAQAAFFGSYRNALKIEPEEPITFCEEAFVSHYRSGAMRQFLQNATQLQLFKQFIDGRLDLLNSGEGFSDVFEEEINMGEYAGSDKLYHQWLSTVRKGSGAILNTVKTKANPAMKTVYKFAKDHAKMGIKEVKNRLKQKDIAENGCAPTPEEQLPKTAPSPLVEAKDPKLREDRRPITVHFGQVRPPRPHVVKRPKSNIAVEGRRTSVPSPEQPQPYRTLRESDSAEGDEAESPEQQVRKSTGPVPAPPDRAASIDLLEDVFSNLDMEAALQPLGQAKSLEDLRAPKDLREQPGTFDYQRLDLGGSERSRGVTVALKLTHPYNKLWSLGQDDMAIPSKPPAASPEKPSALLGNSLALPRRPQNRDSILNPSDKEEVPTPTLGSITIPRPQGRKTPELGIVPPPPIPRPAKLQAAGAALGDVSERLQTDRDRRAALSPGLLPGVVPQGPTELLQPLSPGPGAAGTSSDALLALLDPLSTAWSGSTLPSRPATPNVATPFTPQFSFPPAGTPTPFPQPPLNPFVPSMPAAPPTLPLVSTPAGPFGAPPASLGPAFASGLLLSSAGFCAPHRSQPNLSALSMPNLFGQMPMGTHTSPLQPLGPPAVAPSRIRTLPLARSSARAAETKQGLALRPGDPPLLPPRPPQGLEPTLQPSAPQQARDPFEDLLQKTKQDVSPSPALAPAPDSVEQLRKQWETFE [DENND1A] | 0.0881 | 1.02 |  | 53.6 | -0.0536 | 0.079
MGSSATEIEELENTTFKYLTGEQTEKMWQRLKGILRCLVKQLERGDVNVVDLKKNIEYAASVLEAVYIDETRRLLDTEDELSDIQTDSVPSEVRDWLASTFTRKMGMTKKKPEEKPKFRSIVHAVQAGIFVERMYRKTYHMVGLAYPAAVIVTLKDVDKWSFDVFALNEASGEHSLKFMIYELFTRYDLINRFKIPVSCLITFAEALEVGYSKYKNPYHNLIHAADVTQTVHYIMLHTGIMHWLTELEILAMVFAAAIHDYEHTGTTNNFHIQTRSDVAILYNDRSVLENHHVSAAYRLMQEEEMNILINLSKDDWRDLRNLVIEMVLSTDMSGHFQQIKNIRNSLQQPEGIDRAKTMSLILHAADISHPAKSWKLHYRWTMALMEEFFLQGDKEAELGLPFSPLCDRKSTMVAQSQIGFIDFIVEPTFSLLTDSTEKIVIPLIEEASKAETSSYVASSSTTIVGLHIADALRRSNTKGSMSDGSYSPDYSLAAVDLKSFKNNLVDIIQQNKERWKELAAQEARTSSQKCEFIHQ [PDE1A] | 1.43 | 2.27 | 55.2 | 54.1 | -0.0985 | -0.162
MGST3 | -2.44 | -4.93 | 56.3 | 55.7 | 0.0779 | -0.272
MGSVLGLCSMASWIPCLCGSAPCLLCRCCPSGNNSTVTRLIYALFLLVGVCVACVMLIPGMEEQLNKIPGFCENEKGVVPCNILVGYKAVYRLCFGLAMFYLLLSLLMIKVKSSSDPRAAVHNGFWFFKFAAAIAIIIGAFFIPEGTFTTVWFYVGMAGAFCFILIQLVLLIDFAHSWNESWVEKMEEGNSRCWYAALLSATALNYLLSLVAIVLFFVYYTHPASCSENKAFISVNMLLCVGASVMSILPKIQESQPRSGLLQSSVITVYTMYLTWSAMTNEPETNCNPSLLSIIGYNTTSTVPKEGQSVQWWHAQGIIGLILFLLCVFYSSIRTSNNSQVNKLTLTSDESTLIEDGGARSDGSLEDGDDVHRAVDNERDGVTYSYSFFHFMLFLASLYIMMTLTNWYRYEPSREMKSQWTAVWVKISSSWIGIVLYVWTLVAPLVLTNRDFD [SERINC1] | -4.14 | -5.22 | 56.2 | 60.6 | -0.141 | -0.167
MGTARWLALGSLFALAGLLEGRLVGEEEAGFGECDKFFYAGTPPAGLAADSHVKICQRAEGAERFATLYSTRDRIPVYSAFRAPRPAPGGAEQRWLVEPQIDDPNSNLEEAINEAEAITSVNSLGSKQALNTDYLDSDYQRGQLYPFSLSSDVQVATFTLTNSAPMTQSFQERWYVNLHSLMDRALTPQCGSGEDLYILTGTVPSDYRVKDKVAVPEFVWLAACCAVPGGGWAMGFVKHTRDSDIIEDVMVKDLQKLLPFNPQLFQNNCGETEQDTEKMKKILEVVNQIQDEERMVQSQKSSSPLSSTRSKRSTLLPPEASEGSSSFLGKLMGFIATPFIKLFQLIYYLVVAILKNIVYFLWCVTKQVINGIESCLYRLGSATISYFMAIGEELVSIPWKVLKVVAKVIRALLRILCCLLKAICRVLSIPVRVLVDVATFPVYTMGAIPIVCKDIALGLGGTVSLLFDTAFGTLGGLFQVVFSVCKRIGYKVTFDNSGEL [ENDOD1] | 1.24 | -2.33 | 57.6 | 56.6 | -0.0882 | -0.0976
